Assay: soluble on expression in E. coli; label from the status in PepcDB or PDB records

MIGPISQINISGGLSEKETSSLISNEELKNIITQLETDISDGSWFHKNYSRMDVEVMPALVIQANNKYPEMNLNLVTSPLDLSIEIKNVIENGVRSSRFIINMGEGGIHFSVIDYKHINGKTSLILFEPANFNSMGPAMLAIRTKTAIERYQLPDCHFSMVEMDIQRSSSECGIFSFALAKKLYIERDSLLKIHEDNIKGILSDGKNPLPHDKLDPYLPVTFYKHTQGKKRLNEYLNTNPQGVGTVVNKKNETIVNRFDNNKSIVDGKELSVSVHKKRIAEYKTLLKV
soluble on expression in E. coli: not soluble

MAKPIMAKATAVWLVDNTTLSFKQIADFVGMHELEVQGIADGDVAQGVKGFDPIANNQLTQDEIDTAQNNPLHKLKLKFNAAAQGEEKRRGPRYTPLSKRQDRPASILWLVKFHPELTDGQISKLIGTTKPTIQAIRERTHWNISNIQPIDPVALGLCKQSELDMAVQKAAAKKAADAPVMLEHHHHHH
soluble on expression in E. coli: soluble

MFLSTKFLPMSDTVIRIENLSKKYIIAHQQQERYTVLRDVIANQIKSLGSLINPKAKTENPNCEEFWALKDVSFEIKQGDRVGIIGRNGAGKSTLLKILSRITEPTHGCINIKGRIASLLEVGTGFHPELTGRENIYLNGAILGMSKAEIKRKFDEIVAFSEVEKFLDTPVKRYSSGMYVRLAFAVAAHLEPEILIVDEVLAVGDAAFQQKCLGKMEDVGKEGRTVLFVSHNMATVKQLCNCAFLLYQGNLIFQGNPHEAISQYMQKSTQGKHFHQANIYHHIKGDFRAEIEKITINNLDNSEIALSIFEKVKISIKYKINKPIDELDFFVLIYNLEDGEVQTSLFQRDSLSNIQPLSNYGTISVEFTNPLMPGKYTISAGIFDKNKRFVDWVELAESFYVESAFINGNKYDQRLGKISIQGTWYAE
soluble on expression in E. coli: not soluble

MSLDTGVTSVMFVERSLNEIRFWSRIMKEHSFFLRLGFRCEDTQLIEEANQFYRLFEHIEQIAHSYTNETDPEQIKRFNAEVQQAATNIWGFKRKILGLILTCKLPGQNNFPLLVDHTSREADYFRKRLIQLNEGKLDALPDAIIKENVFFLRIMADHAKFIGHLLDPSERKLVDTARNFSNDFDELMYQAIDLESMKPQSQTAPLLDQFLDQNRVSVASLRDFKKTARDLIEQCKIKSIIHPLLADHVFREADRFLEIIDMYDVHLTNIQSQPREGHHHHHH
soluble on expression in E. coli: soluble

MQTSIISAQSLSKLVSTNQEHLTILKQVNLSIQAGESVAIVGASGAGKSTLMTLLAGLDTPSEGEVYLLGKPLSQLDDEARAALRSESVGFVFQSFLLIPSLSALENVTLPCLLKGEAEDRERAQKLLKAVGLEHRMHHSPAQLSGGEQQRVAIARAFMISPQVLFADEPTGNLDQETAAKVIDLLFELNREHGTTLVLVTHDPKLAQRCQRRFFMQAGELEERV
soluble on expression in E. coli: not soluble

MAEVHVRELKGWEEMEEVVALQREVWGRAESDLVPRGLLVAVQDEGGLVAGAFAEGRMVGFVFGFPTKDPALHHSHMLGVLEAYRGTGAALLLKRFQRDWCLARGVRRVVWTFDPMRGVNANFNLRKLGATAKTYLPDHYGPMSGINAGAPSDRLLAEWDLLSERVYARLYAPPPEPEVAGLPQANRVEGEVPLEARLDLEAERLLFQIPEDWGRILREDPALALKWREHSRLVLPHYFARGYRLVDLVRHPNRYVLAKD
soluble on expression in E. coli: soluble

MGSSHHHHHHSQDPMLSKDIIKLLNEQVNKEMNSSNLYMSMSSWCYTHSLDGAGLFLFDHAAEEYEHAKKLIIFLNENNVPVQLTSISAPEHKFEGLTQIFQKAYEHEQHISESINNIVDHAIKSKDHATFNFLQWYVAEQHEEEVLFKDILDKIELIGNENHGLYLADQYVKGIAKSRKS
soluble on expression in E. coli: soluble

RYLLQRKASEALEVEVVDTWQADAVRDTRTLSGGESFLVSLALALALSDLVSHKTRIDSLFLDEGFGTLDSETLDTALDALDALNASGKTIGVISHVEAMKERIPVQIKVKKINGLGYSKLESAFAMK
soluble on expression in E. coli: not soluble

MEAGLDQSEIDERCECLKEVATSPAGRVLATDKQLDNLEQFISLVPGYIEKVRSHRVAVKAEEKRKAEEKRRQEEKEEEARKAREKQIEEERKAKEEQRANEERAKEERDRRALEVIVPPRQNSANSNINASVAFITNRLEMGSFSENNETVDRTIDTTATTVLSASSNAAQVDFVSFIKNSGEYLMVRKKKFPVDELVNNEKLGYPLGVTYDEKSKYWIICDRNLNKVLLMNVAESDVRVFEGPHLRNPTAVAVFEKGKSVVILCAPGNNQHVIYIYDFVDEIMHQFASHSDPLYNMKSQLRGLAISLGGNVLSLECSHAAAPKRLRIFKRDVGGKGFDIMGAKTPSFIASHNSKVAISDLGNNTVLIGNLIDTDWNKMSFSVLRIIETTQDLTLDQLANNNGFKFVSGMQFDTYGHLLIGDAKGHTIKLYDTDYKFLHRISSDFPLPYMSSFHISSSGEGIILDVHAQQKLHWVKMESIENITPWKAPPYQPKQSRENYQNRRF
soluble on expression in E. coli: not soluble

MKPIDEFLYVKQNYLTSDTNSLMRLYFPIIGSDAAGLYQYFVSFFDNGEKKHKFSEILNHTQFGMACFENALSVLTAMDLLVFYRQENLYYIKLKAPLNAETFLKNAVYRHLLEQKIGQVAVEHLDLHLPREAQDLSKQFSEVFTAAGQLDLKTPKSKTDFDLDHFKDLMIRDNLQFTDEQTDVIALYILSEKYQLTWYETYLLAKETASNYRISLKRMQAKQEQRDHVDADNSFSKKEQIIIEEAKADKVEVFLAKIKKTRHAAITKDERSLLAELAEMGFLDEVINIMLLYTLDKTNTANINKTYIMKIANDFAFQKIDSAEKAVLKLRSFAERKTKQNQKKIKESSKNNVPEWSNQDYQNNTTADEQARLDEIKRKTLAR
soluble on expression in E. coli: not soluble

GMPEIHQSIAQHYHERTKYDPETIASKSQRLDWAKQPVPFKEYKIGSAIDLKPYLQETPEVFVNDTNGQWWQRLSRLLFRSYGLTARMPSMGNTVYLRAAPSAGGLYPAEVYVVSRGTPLLSPGLYNYQCRTHSLIHYWESDVWQSLQEACFWHPALESTQLAIIVTAVFYRSAWRYEDRAYRRICLDTGHLLGNIELSAAITDYRPHLIGGFIDEAVNDLLYIDPLQEGAIAVLPLADLLDIQQNISPGCTALPSATETNYPQVPDGELLKYFHHHTQISASITGKLNLPTVIQEKSLEDKYNFPFCLKISTVSAPIYWGENLSDLEITMHKRRSTRAYNGEELTFDELKALLDFTYQPQNYIDQSLDNSPDYFDLNLIETFIAVCGVQGLEAGCYYYAPKAQELRQIRFKNFRRELHFLCLGQELGRDAAAVIFHTSDLKSAIAQYGDRVYRYLHMDAGHLGQRLNLAAIQLNLGVSGIGGFFDDQVNEVLGIPNDEAVIYITTLGRPR
soluble on expression in E. coli: soluble

MYRFLSGIKVVEIAGLAPVPHCGMMLADFGADVTVIDKKNPAIEQRLNRGKTMKQLDLKNPEDIKKVRDLCQTSDVLLDPYRPGTLEKMGLDPSTLWNNNKGLIICKISGYGQTGRMSQETGHDINYVALSGMLPTFSGVNATRPWPPANMLADFAGGGLSAAFGILSAIYARSHNGGKGCLLDCSMTEGVAYLSSFVQHYYDQPNLFTDKYALFSGECPIYRTYKTKDDKFVAVGAVEPKFYQNLFKLLNVDGRDLFVNPGKITEDLESRFLQKTRDKWANIFKGQECCVTPVLDIHEVGSYGQHVDRNSFTKTSSNWIANPSPRVWTQDELAALSSKK
soluble on expression in E. coli: not soluble

MSKKKVQNTNKKMKECWLTPIPQNVETVNMTVSFKIDEKDVGKPANEVIRINENSMVSFLSTNSFYNGLILSDKIVKVNGASGNISKYQTELMKGETCSVEVTRRKNIIPATRERLKKSGCVLRRDNTCFVIEVEKTSAMKSATVGVTVTYIQKRGIVTRIEPSSLASIFFGRGDLIMDINEESILNAEKNDDFIREKLSGILKGEKVTFLVERPVSVESANTLRHLIESVAPDPDVKMANDAICIGRNASNMHYNVLKKLQPKSILSRDVFKGKNPREKKPGKKLSKEKDNTIKISTATSTANISTDVAEDEIDNLKNVVTKSHAVRSGDEEEERGAFDDE
soluble on expression in E. coli: not soluble

MALPGERFHVLAQLEHLQSKYTGTAMRHEPSRMDCESAPRHSRLSNVSSRNEHVYCRCGEREPSSNPLQSDKSHDSAVWTASREESS
soluble on expression in E. coli: not soluble

SEKMKLLYVYDPLCGWCYGFGPVVEKIEKNYKGTVDVEIISGGMVMGNRIAPIGNMSEYILDAIPRLQRMTGIEFGQPYITLLKEGSYVTSSEKPSIALCVYKSFTAERAVEYGHAIQTSFYKEGKDLNQDVLYADLATSYGIDRAAFLKRMKDSVYFNQAHEEFKRAAALGVTGFPTLLLKQENGYTALTEGYATYESIEKQLQKHVKAAGTK
soluble on expression in E. coli: not soluble

MSLDGPVVFICGKCKLPVGDSLSWDGSEDEQNQIRLKRVTDNVYVGKENRMYEVGKRSLCLIVDLLCQGCHSVLGMVYASTPKNMDHKRFTFCLNVADIDSYVLGSASQSLAAGGAGEQPVTLEYRSQVEEQLSQMKMLVMSMALKLEEIEIGRREGYEREGHHHHHH
soluble on expression in E. coli: not soluble

MQMMEQFYPKVSIVIPVYNGSDYMREAIDSALGQTYGNIEVIVVNDGSSDGGLTHEIALSYGGNIRYFAKENGGVASALNFAIRMMDGEYFSWLSHDDIYYPNKIETQIGYLAEHDRNAILYSDFELIDCLSKVIKPVNAGEIPPEQFLYNLITIGHLNGCTLLVPKRCFEETGFFDESLRSTQDYALWFTFAQKYRFEQIRKVLVKYRTHSNQGSYVIPTHSQEVNDLHIWFLEEASERGLLPIPDEGASRFFLEVAGIYKKRGIYRAADYSCSMALRHMRDEGGLALLRELPRVAYLKYYFRKKQFKSYLRELRRSTVRRSLLEHHHHHH
soluble on expression in E. coli: not soluble

EPQVRESLGRDVMVVVDLSGSMAEPDFTSRTGEKISRLDAAKEVLTEFVQSRKGDRLGLVLFGDAAFVQTPFTADQKVWLELLNQTDVAMAGQSTHLGDAIGLAIKVFEQSDKSRGALEQDQNREKVAIVLTDGNDTGSFVEPIDAAKVAKAKGVRVHVIAMGDPETIGETALDMDTIHRIAKESGGEAFEALNRDELSAAYDEIGKLEPQLYESTTYRPKQSLHH
soluble on expression in E. coli: not soluble

MTGSQVIDAEEDRHKLVVEYKDALQPADFYHNFKQRGIRSVQLIPYLEFDDRGDLTAASVTAELWGKFLIALFECWVRADISRISIELFDATLQKWCGSENPQPRCDCQACDWHRLCPHARQETPDSVLCAGYQAFYSYSAPHMRVMRDLIKQHRSPMELMTMLR
soluble on expression in E. coli: not soluble

ATGWNNALGHTAANEEPQEEASSQTTSIHFPLDYKQWQEEQDINLLNRALEEAKFNQRQAAELLGLSYHQLRGMVRKYGLVGQS
soluble on expression in E. coli: soluble

MSLTNLTVHTLEKDDIDSIIEIENLCFPTPWTKESMEGELRNKFAKYVVIKNNNLVVGYGGLWLIIDEGHITNIAVHPEFRGMGIGNKILEELIKLCEKRNIPSMTLEVRISNTIAQNLYKKFGFKEAGVRKKYYGDNDEDALIMWRNEGHHHHHH
soluble on expression in E. coli: soluble

MSLRIVKVRTFHVRPRWLFVAVETDKGVIGWGEAVVEGQARVVERMIGDLAEYLAGRDPRRIEHHWQGMYRGAFYRGGAVLCSAISGIDQALWDITARDLGVPVHALLGGAVRDSVRMYGHARGVTDAEFAHAARRSRSAGMTAIKFGLDGPVRALDTVEYVDRQVARVAAVREAVGPAFDIALDFHGRTSPAMARRLAERLSPMGPLFIEEPCLPENVDALAEIARATNVPIAAGERIFTKWGFRELLERRAVSVVQPDLCHAGGISEVRRIAAMAEAHYVALAPHNPLGPVSLAACLQVAASTPNFLIQEYLALDDGADLGAGILAVPFSVENGHIAVPTGPGLGIEVDEAQLMDRVYAGDWTTPRFTHQDGSHGDWEGHHHHHH
soluble on expression in E. coli: not soluble

From the DeepSol protein solubility set
